Patent US20190389961A1 (INNATE PHARMA, published 2019)

What was measured:
[1] = target: T1, soluble recombinant human CD39-M2 extracellular domain protein (human, UniProt P49961 38-478, limits assumed); assay: cell-based or functional assay
T1 sequence: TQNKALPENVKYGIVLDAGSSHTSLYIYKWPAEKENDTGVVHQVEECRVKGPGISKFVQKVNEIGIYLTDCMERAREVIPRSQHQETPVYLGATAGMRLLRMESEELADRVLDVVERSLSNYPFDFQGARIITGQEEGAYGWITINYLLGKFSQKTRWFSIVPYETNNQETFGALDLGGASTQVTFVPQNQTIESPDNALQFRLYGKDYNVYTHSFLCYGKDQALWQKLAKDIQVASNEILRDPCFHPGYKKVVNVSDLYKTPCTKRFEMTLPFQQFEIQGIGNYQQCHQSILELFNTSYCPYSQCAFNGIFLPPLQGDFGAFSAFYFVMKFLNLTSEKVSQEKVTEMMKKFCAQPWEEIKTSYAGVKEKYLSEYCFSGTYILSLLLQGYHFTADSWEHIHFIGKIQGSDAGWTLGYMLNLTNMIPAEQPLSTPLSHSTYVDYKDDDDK

[2] = target: T2, human CD39 (vascular CD39, NTPDase1) expressed at the surface of cells (human, UniProt P49961 1-510); assay: cell-based or functional assay
T2 sequence: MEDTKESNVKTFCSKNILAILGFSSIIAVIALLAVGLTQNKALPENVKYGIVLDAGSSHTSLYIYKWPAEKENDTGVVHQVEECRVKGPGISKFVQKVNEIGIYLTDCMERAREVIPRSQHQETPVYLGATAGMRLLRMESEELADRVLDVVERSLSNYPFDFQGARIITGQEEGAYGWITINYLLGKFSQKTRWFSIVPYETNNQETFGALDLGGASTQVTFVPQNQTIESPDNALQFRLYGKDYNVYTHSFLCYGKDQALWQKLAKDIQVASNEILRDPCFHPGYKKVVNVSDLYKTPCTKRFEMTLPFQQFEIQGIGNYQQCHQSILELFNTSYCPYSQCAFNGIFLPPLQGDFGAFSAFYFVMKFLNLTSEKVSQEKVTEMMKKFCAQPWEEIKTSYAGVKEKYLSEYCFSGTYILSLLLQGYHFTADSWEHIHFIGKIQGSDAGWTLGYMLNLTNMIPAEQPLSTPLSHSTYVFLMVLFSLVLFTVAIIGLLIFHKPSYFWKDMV

[3] = target: T3, murine CD39 expressed on CHO cells (murine, UniProt P55772 1-510); assay: flow cytometry titration on CHO-moCD39 cells
T3 construct: whole, on cells; also called CHO-moCD39; moCD39
T3 sequence (looked up): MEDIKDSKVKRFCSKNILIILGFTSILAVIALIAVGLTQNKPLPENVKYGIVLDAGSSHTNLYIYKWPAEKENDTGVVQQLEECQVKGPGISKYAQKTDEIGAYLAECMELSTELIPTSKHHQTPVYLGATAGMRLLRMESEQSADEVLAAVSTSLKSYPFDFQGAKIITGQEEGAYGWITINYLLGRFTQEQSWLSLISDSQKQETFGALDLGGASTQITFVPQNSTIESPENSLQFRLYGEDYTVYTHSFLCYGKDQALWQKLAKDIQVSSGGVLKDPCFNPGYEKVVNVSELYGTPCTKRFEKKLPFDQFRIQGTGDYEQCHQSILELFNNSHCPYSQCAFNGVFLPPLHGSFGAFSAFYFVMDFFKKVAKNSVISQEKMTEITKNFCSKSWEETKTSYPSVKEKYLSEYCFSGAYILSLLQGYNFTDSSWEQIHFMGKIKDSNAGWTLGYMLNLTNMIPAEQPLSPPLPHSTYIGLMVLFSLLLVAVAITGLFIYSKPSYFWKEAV
Experimental: (§1) Cells were incubated with various concentration of unlabeled anti-CD39 antibody from 30 μg/ml to 5×10-⁴ μg/ml, for 30 minutes at 4° C. After washes, cells were incubated with Goat anti-mouse H+L labeled secondary antibody for 30 min at 4° C.

[4] = target: T2, human CD39 (vascular CD39, NTPDase1) …; assay: flow cytometry on Ramos lymphoma cells, first set of experiments
Experimental: as §1

[5] = target: T4, recombinant human CD39-L2 (NTPDase6, ENTPD6) (human, UniProt O75354 61-484, limits assumed); assay: ELISA on plate-coated recombinant huCD39 L2; the single curve has no legend on the sheet, I-394 by the legend paragraph 70
T4 construct: Genbank NP_001238 is printed
T4 sequence: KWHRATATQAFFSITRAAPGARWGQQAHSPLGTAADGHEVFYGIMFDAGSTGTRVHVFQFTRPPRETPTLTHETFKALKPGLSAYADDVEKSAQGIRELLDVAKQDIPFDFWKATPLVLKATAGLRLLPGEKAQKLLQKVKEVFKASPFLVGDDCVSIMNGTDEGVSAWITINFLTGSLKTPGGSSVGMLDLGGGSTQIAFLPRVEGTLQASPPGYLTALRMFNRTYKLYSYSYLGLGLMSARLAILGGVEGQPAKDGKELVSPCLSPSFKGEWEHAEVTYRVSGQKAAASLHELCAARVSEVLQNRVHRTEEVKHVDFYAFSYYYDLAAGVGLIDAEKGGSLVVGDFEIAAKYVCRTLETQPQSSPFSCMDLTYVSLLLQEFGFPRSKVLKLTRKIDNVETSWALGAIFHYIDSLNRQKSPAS
Experimental: Wells were washed in TBS Tween 20, and further saturated 2H at RT in TBS Blocking buffer. Dose range concentration of primary antibody was incubated in TBS blocking buffer for 2 h at RT. Wells were washed in TBS Tween 20. […] Optical density was measured on Enspire™ at OD=450.

B1: antibody I-394 (antibody, V domains shown)
VH: EVQLQQSGPELVKPGASVKMSCKASGYTFTDYNMHWVKQSHGRTLEWIGYIVPLNGGSTFNQKFKGRATLTVNTSSRTAYMELRSLTSEDSAAYYCARGGTRFAYWGQGTLVTVSA
VL: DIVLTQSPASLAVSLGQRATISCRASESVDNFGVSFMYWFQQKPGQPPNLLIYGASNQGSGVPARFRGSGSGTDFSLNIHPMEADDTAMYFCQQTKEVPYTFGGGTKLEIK
notes: Mouse variable regions; Produced in CHO with human IgG1 constant domains carrying L234A/L235E/G237A/A330S/P331S (Kabat EU numbering) and a human Ck constant domain
IC50, inhibition of ATPase activity of soluble CD39 protein (Cell Titer Glo) [1]: 0.003 µg/mL | IC50, inhibition of ATPase activity of CD39 on Ramos cells (Cell Titer Glo) [2]: 0.05 µg/mL | binding result [3]: no binding (tested: 30 µg/ml) | EC50 [4]: 0.16 µg/mL | binding result [5]: no binding (tested: about 50 µg/ml)
